Assay results as given in the DeepSol protein solubility set.

experiment: soluble on expression in E. coli; label from the status in PepcDB or PDB records

Row | Sequence | soluble on expression in E. coli
1 | MGSDKIHHHHHHMLSKLWKRQAPQMVGIDIGSHEIKAILLSKTADGYKIQNHASVPVRKGAVVDHDIRDTEAVIESLRQIRRGLPKSLKFAAVAVSGSAVMTKVIYMDAALNEEEMEAQIEIEADNLIPYSLDEVSIDFERLNPNITDPTKVNVLLSACRTENIDSRVDSLDAIELDVKVVDVEAYALGRSAELIYAQLPDGAKAKSIAMVDIGANMTTFSVVENGDTTFIREQAFGGELFTQSIVSFYGMPHDEAERAKISGQLPRNYMFEVLSPFQMQLLQQIKRTLQIYCTASGREKVDYIVLCGGTAKLEGMVELLTNELGTHTIVADPFQGCLHADDVMKGQLQPNISKYMVACGLALRSYAQWRT | not soluble
2 | MGSDKIHHHHHHMEVTRTDKAVTLRWENEEVSEGTLVFVSSSPSLEANSEPVFKVSNAAKHYTFETKDIPVYFFLQAPNGDKRVVSERILPLESVFNFRDMGGYKTKHGHHVKWGKLYRSSNLVNINQADAALLQKLHIKWICDLRSSSEVQAQPTPEIQGVLNKHIPIGTAKNEKTTLPVSNDKAIYEPLMGESYRVFVQSVDGFKEIFSEILTDAKAGLPFVFHCTAGKDRTGVLAALLLTLLDVPEKTIFDDYAITNRYQDNILQEMGGIVSLFSNGNEKIDLEAFRPMAEARPEYLKIAFDEMKKQFGSVDGYLEKGIGITAEEKAIIQQQLLE | not soluble
3 | MSLKSILIMGGSDFIGSALAKRLIKCGYQIDILTNGKKEIDYNGFKEHLICDRKVRKDMENIITGRKYDYIYDMTAYTKEDVSNLIDFISMDNLKKYIVLSAGAVYKDSGRNIKEENEKGENENWGKYGLNKKEAEDFIINSPIPYIIIRPTYIYGENNNLYREYYFFEKIEKNEKIPVPKGKQVSNQFIYIGDLVKVLESIMKNPHVREAYNVTNPQLISWDDLIYTCGEIIGKEPIIKYVDMEKVEFRERTYFPFRNIDFNLDINKLIEHGLYIPNVLLKEGLTATYKWFSANKPKMHDRKMNKVESVMQIEGHHHHHH | soluble
4 | MRNSTDYSPLYRSFIGFDHLASLIDKASQPGKQSSYPPYNIELLAENQYRITMAVAGFREEDIDIESKDNGLIIVGTKQPPANSTQESEATTRHFLHQGIAERNFERKFQLGEHVKVIGAFMENGLLHVDLEREIPEALKSRKIAINGKSLLNGNS | not soluble
5 | MGHHHHHHSHMTWKGGGGWMAAVTHGPGITWGSLLPSAVRQGEQKCKNTDVYFSKLGGGGVPPDSFQRADCGGPTVYPTPARESLSFGTPGFPELRGKLILHVSIAVVVFLFGPGRAGEGPSRLQEASRVSWTLLCRPQAALQTPVRWDDFRRSQPGTARPSAWEPVQGAVS | soluble
6 | MGSSHHHHHHSSGLVPRGSHMEGRLLLLETPGNTRMSLAYDEAIYRSFQYGDKPILRFYRHDRSVIIGYFQVAEEEVDLDYMKKNGIMLARRYTGGGAVYHDLGDLNFSVVRSSDDMDITSMFRTMNEAVVNSLRILGLDARPGELNDVSIPVNKKTDIMAGEKKIMGAAGAMRKGAKLWHAAMLVHTDLDMLSAVLKVPDEKFRDKIAKSTRERVANVTDFVDVSIDEVRNALIRGFSETLHIDFREDTITEKEESLARELFDKKYSTEEWNMGLLRKEVV | soluble
7 | MRKQKNRQRNRGRSQEIALFLDPLATSLKWLQAGRQITTEAFHNPEAGENQYRLISSGFRLSIFGRGAVRQGMNKERFTILLGGDVAVSDRLKRAVVNSRVIAADGGMRHATPLGLTPELWVGDFDSANQELLDAWPDVTRQPYPAAKAVTDGEIAVSEALLRGAHSLLLVGALGGARSDHALQHLLYAVALAERGFEVTLTSGEEEARPLLAGSLAIDLPAGSLFSVAGFTALEGLDIGNVRYPLNDFALAFGSSRTISNVANGGPVHFSLKSGKAIVLARPYDLTGALEHHHHHH | soluble
8 | MGSDKIHHHHHHMFGPGGTQIPNPLRLKRPEGELVWAHATTQERLLGLCDVGCRLKMMRPDLSVMLTWEEDMRPAKLPEGCDIPLGPLTVEQPNDIRNFLDNWSPDVCVWAGGRLRRLLMRHMREREMPALLCDIDADELPSRASRWLPDQRHRLLNGFAAILVPGTEVSERLKRAGVAPERIHPAGRLFQSSTPPSCNDDELAQMQKQFASRPLWLAAHVSLSELPAVLKAHRGALRLLHRLLLVLTVDTFEDLDAARSLLRKEGLSFADWDMGEDPEDHTQVAIGLTENLGLWYRLCPISFLGNSLIRGAQGTNPLDAAALGSAILHGPGVVAHAQAYQRLAALDAAERIHGEEELADAVFRLSSPDRAAEMALAGWQVVTEGAVMTDTLLERIQDLLDQSELSHAPA | not soluble
9 | MAHHHHHHMNVRKSILNYLILHSSIVRRNHNKSYQKECRQSGSLNWMEKNRKMKSVRPNYFVCIPLSGNKGLVEELIKVQNHVASKFEMLKECAIERNKFHISLLILHVKKSQMVASKEAFREAIEEIKKLNHQAISFDTLETFRNDVLYAGLKEDSRKYVVNMIALLRDAFTKRDIHIFSNHKGKEEAREKTRPSGAIDKGIGNRTDKGAAVPSTYQCSEKEQITPHVTIMKNSYLRKIYANRKPQIFADYYADFNLSKLQTERVVPNKIQFLEMDTDSATSYYRVIDECGLP | not soluble
10 | MGSDKIHHHHHHAQVTPFTYFNVDWQFNAPISNNFANKASGWGMNFEGGYYVLPDLSIGAFINYHTNNEYISRQTLPISNSAALTTDQQHSVFQLPFGFATHYRFSDGACQPYIGLKLGANYTKMSSDFYIYEVKDNTWGFYVSPEVGVNIYPWTNSIGFHLAAFYSYSTNKGTVFNYDMDKLNNFGFRLGVAF | not soluble
11 | LLQTMLSMTSHGPAQVFTERYQLIVQPLGLSQQVEKDSLDLLADYLHGFALSISCCHDASLIKTDMLDGPLKLICSSLLASRT | not soluble
12 | MSNYVIQADQQLLDALRAHYEGALSDRLPAGALFAVKRPDVVITAYRSGKVLFQGKAAEQEAAKWISGASASNETADHQPSALAAHQLGSLSAIGSDEVGTGDYFGPIVVAAAYVDRPHIAKIAALGVKDSKQLNDEAIKRIAPAIMETVPHAVTVLDNPQYNRWQRSGMPQTKMKALLHNRTLVKLVDAIAPAEPEAIIIDEFLKRDSYFRYLSDEDRIIRERVHCLPKAESVHVSVAAASIIARYVFLEEMEQLSRAVGLLLPKGAGAIVDEAAARIIRARGEEMLETCAKLHFANTKKALAIAKRRK | soluble
13 | MSLSELLDLSFLSEEEKDLILSVLQRDEEVRKADEKRIRRLKNELLEIKRKGAKRGSQHYSDRTCARCQESLGRLSPKTNTCRGCNHLVCRDCRIQESNGTWRCKVCAKEIEMKKATGDWFYDQKVNRFAYRTGSEIIRMSLRHKPAVSKREGHHHHHH | not soluble
14 | GSHMDLETLRARREAVLSLCARHGAVRVRVFGSVARGEAREDSDLDLLVAFEEGRTLLDHARLKLALEGLLGVRVDIVSERGLAPRLREQVLREAIPL | soluble
15 | MATNLKSIAKLQKPIQYDKVIEVDRIFADPAFIEQHRQRILASFKDAKESALYHELTHIVIKDNLFSAAMNEIVSYFEFQINPEELKNVVEGLKRDVVKDADEKTIQSIAEKIIKKALVFNFLQKEWKVEVSDDIVKRVISLYYEKTNQNVREYLDDKQKFEGIRTALIEERMVLETINHFKFHFNLTGQLPS | soluble
16 | MSLCELSYLNAVVMLKAQRGGNSGLYFGSMTTFITSGGLEISPAGAHIVHAESPEGELLFVSSASQYGEGNAIRGGVPIIAPWFGGLLGLDPAHGWAKRSAWDVTEHDGQIHAEYGRDGLLLDIRANSTKNGFEITLRAYNDTDEARTVQLAFHPYFKVDDVEKIEVRGLDGVDILNRLNNEVETQDGPVTFDGEFDRIALGTPVVRIFDTDRIITIEGDGHDSTVVWNPGESRASTVADIGEGEWRDFVCVEPALLGADQKGVRVAPGQSVTVGMQVSVEKRAEGHHHHHH | soluble
17 | MSLEASLLKKNQSIELTIEDLTHDGSGVGKIDGYPFFIPNTLPGEKVTAKIIKLNKNYGFARMENIETVSANRVEPPCAVYSKCGGCSLQHLSYDGQLEFKRNQVEETMKRIGKLNVEVPETLGMENPWRYRNKSQVPVGFVNGKLTAGFYQKRSHAIIDMSTCLIHNEQGDFAVQKTREILAKYGTEPYDEQTGKGDIRHIMTRFAHTTGQLMIVLVTTKERMPFKEEIVRDLVEQLELTSIVQNINPHKTNVIFGDRTKTLWGKDIIEDTIHGIRFAISARSFYQVNPLQTEVLYQQAIDAAELTGEETVIDAYCGIGSISLCLAKKAKHVYGVEIVDQAIQDARANAELNELANTTFETGKAEEVIPSWYKAGIVADVLVVDPPRKGCDEKLLETILAMKPKKVVYVSCNPGTLARDMKILTDGGYVAKKVQPVDMFPMTTHIEAVTVLHLNEGHHHHHH | soluble
18 | MLTSAQTRSLFRNNIFYKYRTAISVCQSIGRSIRSEEDWAYTFTLDSRFPKYISDHRNLINESVSFYEKRIPDFPSEKSIQKLKNEIFRNLPFLEHHHHHH | not soluble
19 | MSLNASVSPKGSLETLSQREVQQLSEVGTGSLYTLFRQCALAILNTGAHVDNAKTILEAYKDFEVRIHQQDRGVRLELLNAPADAFVDGEMIASTREMLFSALRDIVYTESELASQRIDLESSQGITDYVFHLLRNARTLRPGEGHHHHHH | not soluble
20 | DYSQKLQNLISEQLVGCGFNEILNNSLTAASYYEGSETYKNENLVYLMNPLSNDLNVMRQTLLFGGLESIQHNANRKNADLKFFEFGNCYFYNAEKKNPEKVLAAYAEEYHLGLWVTGKRVSNSWAHPDENSSVYELKAYVLNIFTRLGLNFGNVVFGNLTNDIYSTAISVHTRGGKLLATFGIISKKIQKAFDIDNEVYYAEINWKELM | not soluble
21 | MTVIIKSMETPEEIEGKSFVHWQTWREAYDDLLPAEFQETMTLERCRLFSQKYPENTLIAMDGVKIVGFISYGNCRDETIQAGEIIALYVLKDYYGKGIAQKLVKAALTDLNHFSEIFLWVLKDNKRAIAFYQKMGFTFDGQEKILELGKPIKEKRMVFYSK | not soluble
22 | MSRQEVGYPFHLGRTLKLPQDPPGMAAIYLQSCSGGLFAGETLHLQLHAGPHTQVHVSTGAATVAHSMLEQPARQTVTLIAETGALLEYLPMATILFPQARLHSVVNVTLHPNARVMLCDAFCLHVPPGSAGLPGFYRADLHIRCPAGTLLAGDRLALTGADLQRRLPGVSAELQALATFMLVGQDLPVDELKRALRDALRVVPESYLGVSALPNDCGVSVRIMTADAVALRSALHLAWACARQQLTGIAPRVRRKLEHHHHHH | not soluble
23 | MGSDKIHHHHHHSEDINRNPLLPTKEDEKMDGVIYGAYLPNLEKSVIPIGTASESTEPVNRYQIGVNLAGDAWAGYMSPRDNKFNGSKNFTNYFMYENWVNYVYSFMVTDVYSPWMQIKRISQDEGTRNDEIYALAQIIKIAALHRTTDMFGPIPYSQVGKGSFKVAYDSQESVYRSFLKELEEAVQTLDDYSNKSKEVLPAFDIVYNGDVNKWMRFANSLMLRLAIRVRFADAGLAKEYAEKAVKHPAGLINSKELAAQMGKGAGLQMKNPLKVINEEYNDTRMGATIYSYLAGYNDARAAVYFVKNNGFKAVRCGIAKSGDAYNGFTRPNVHEDDPLYWMKASEVCFLKAEGALAGFDMGGSAGDFYNAGIRMSFSENGLDNSSAETYLKDSTRKPANYTDTSNGELSANAPSSITIRWENGATEEEKLERIITQKYLAIFPNGQEAWTEWRRTGYPRQIVVAENKTNSAVLIGNGYDLGGVRRLPYPRTEYEQNGENLHNAISQYLGGVDNAATKVWWDKKSK | not soluble
